Measured values published in the supplement of paper PMC6755084.

system: F1*sub RNA substrate (template-directed ligation); experiment: fraction ligated after 30 min (ligated reads / total reads); higher = more ligase activity; sequences stand for … in GAGACCGCAACTGAAAAGTTGT…AGTTCTGCACGTAGAAGCAAAAGGC; conditions: 42 °C
Procedure, shortened: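 Oligo-pool templates underwent PCR amplification, T7 transcription and gel purification to yield ribozyme variants. Gel-separated ligated and unligated bands were converted to complementary DNA with barcoded primers and sequenced on a MiSeq, keeping core bases of quality ≥20. The ratio of ligated reads to total reads gave the fraction ligated for every variant.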

Sequence | fraction ligated
TATCACTTGTCGTAGCACTTTGGATGGTTGA [3d2010] | 0.171
TATCACTTGTCGTAGCACTTTGGTGGGTTGA [3d2008] | 0.0859
TATCACTTGTCGTAGCATTTGGATGGGTTGA [3d2005] | 0.815
TATCACTTGTCGTAGCCTTTGGATGGGTTGA [3d2004] | 0.768
TATCACTTGTCGTGAACTTTGGATGGGTTGA [3d1983] | 0.773
TATCACTTGTCGTGACACTTGGATGGGTTGA [3d1986] | 0.779
TATCACTTGTCGTGACACTTTGATGGGTTGA [3d1987] | 0.508
TATCACTTGTCGTGACACTTTGGAGGGTTGA [3d1989] | 0.0822
TATCACTTGTCGTGACACTTTGGATGGGTTA [3d1991] | 0.703
TATCACTTGTCGTGACACTTTGGATGGGTTG [3d1992] | 0.826
TATCACTTGTCGTGACACTTTGGATGGGTTGA [2d221] | 0.808
TATCACTTGTCGTGACACTTTGGATGGTTGA [3d1990] | 0.0934
TATCACTTGTCGTGACACTTTGGTGGGTTGA [3d1988] | 0.135
TATCACTTGTCGTGACATTTGGATGGGTTGA [3d1985] | 0.809
TATCACTTGTCGTGACCTTTGGATGGGTTGA [3d1984] | 0.784
TATCACTTGTCGTGCACTTTGGATGGGTTGA [3d1982] | 0.783
TATCACTTGTCTAAAACTTTGGATGGGTTGA [3d1836] | 0.789
TATCACTTGTCTAAACACTTGGATGGGTTGA [3d1839] | 0.776
TATCACTTGTCTAAACACTTTGATGGGTTGA [3d1840] | 0.753
TATCACTTGTCTAAACACTTTGGAGGGTTGA [3d1842] | 0.133
TATCACTTGTCTAAACACTTTGGATGGGTTA [3d1844] | 0.758
TATCACTTGTCTAAACACTTTGGATGGGTTG [3d1845] | 0.792
TATCACTTGTCTAAACACTTTGGATGGTTGA [3d1843] | 0.288

Sequence | fraction ligated
TATCACTTGTCTAAACACTTTGGTGGGTTGA [3d1841] | 0.116
TATCACTTGTCTAAACATTTGGATGGGTTGA [3d1838] | 0.841
TATCACTTGTCTAAACCTTTGGATGGGTTGA [3d1837] | 0.789
TATCACTTGTCTAACACTTTGGATGGGTTGA [3d1824] | 0.8
TATCACTTGTCTAAGAACTTGGATGGGTTGA [3d1857] | 0.771
TATCACTTGTCTAAGAACTTTGATGGGTTGA [3d1858] | 0.777
TATCACTTGTCTAAGAACTTTGGAGGGTTGA [3d1860] | 0.108
TATCACTTGTCTAAGAACTTTGGATGGGTTA [3d1862] | 0.735
TATCACTTGTCTAAGAACTTTGGATGGGTTG [3d1863] | 0.782
TATCACTTGTCTAAGAACTTTGGATGGTTGA [3d1861] | 0.166
TATCACTTGTCTAAGAACTTTGGTGGGTTGA [3d1859] | 0.162
TATCACTTGTCTAAGAATTTGGATGGGTTGA [3d1856] | 0.794
TATCACTTGTCTAAGACACTGGATGGGTTGA [3d1878] | 0.787
TATCACTTGTCTAAGACACTTGATGGGTTGA [3d1879] | 0.708
TATCACTTGTCTAAGACACTTGGAGGGTTGA [3d1881] | 0.0594
TATCACTTGTCTAAGACACTTGGATGGGTTA [3d1883] | 0.701
TATCACTTGTCTAAGACACTTGGATGGGTTG [3d1884] | 0.781
TATCACTTGTCTAAGACACTTGGATGGTTGA [3d1882] | 0.12
TATCACTTGTCTAAGACACTTGGTGGGTTGA [3d1880] | 0.113
TATCACTTGTCTAAGACACTTTATGGGTTGA [3d1885] | 0.171
TATCACTTGTCTAAGACACTTTGAGGGTTGA [3d1887] | 0.0527
TATCACTTGTCTAAGACACTTTGATGGGTTA [3d1889] | 0.162
TATCACTTGTCTAAGACACTTTGATGGGTTG [3d1890] | 0.751

Sequence | fraction ligated
TATCACTTGTCTAAGACACTTTGATGGTTGA [3d1888] | 0.0589
TATCACTTGTCTAAGACACTTTGGAGGGTTA [3d1896] | 0.134
TATCACTTGTCTAAGACACTTTGGAGGGTTG [3d1897] | 0.0676
TATCACTTGTCTAAGACACTTTGGAGGTTGA [3d1895] | 0.095
TATCACTTGTCTAAGACACTTTGGATGGGTT [3d1900] | 0.747
TATCACTTGTCTAAGACACTTTGGATGGGTTA [2d206] | 0.803
TATCACTTGTCTAAGACACTTTGGATGGGTTG [2d207] | 0.825
TATCACTTGTCTAAGACACTTTGGATGGGTTGA [1d11] | 0.818
TATCACTTGTCTAAGACACTTTGGATGGTTA [3d1898] | 0.372
TATCACTTGTCTAAGACACTTTGGATGGTTG [3d1899] | 0.408
TATCACTTGTCTAAGACACTTTGGATGGTTGA [2d205] | 0.588
TATCACTTGTCTAAGACACTTTGGGGGTTGA [3d1891] | 0.118
TATCACTTGTCTAAGACACTTTGGTGGGTTA [3d1893] | 0.104
TATCACTTGTCTAAGACACTTTGGTGGGTTG [3d1894] | 0.0778
TATCACTTGTCTAAGACACTTTGGTGGTTGA [3d1892] | 0.104
TATCACTTGTCTAAGACACTTTGTGGGTTGA [3d1886] | 0.044
TATCACTTGTCTAAGACATTGGATGGGTTGA [3d1871] | 0.796
TATCACTTGTCTAAGACATTTGATGGGTTGA [3d1872] | 0.345
TATCACTTGTCTAAGACATTTGGAGGGTTGA [3d1874] | 0.0252
TATCACTTGTCTAAGACATTTGGATGGGTTA [3d1876] | 0.793
TATCACTTGTCTAAGACATTTGGATGGGTTG [3d1877] | 0.824
TATCACTTGTCTAAGACATTTGGATGGTTGA [3d1875] | 0.137
TATCACTTGTCTAAGACATTTGGTGGGTTGA [3d1873] | 0.0508

Sequence | fraction ligated
TATCACTTGTCTAAGACCTTGGATGGGTTGA [3d1864] | 0.762
TATCACTTGTCTAAGACCTTTGATGGGTTGA [3d1865] | 0.732
TATCACTTGTCTAAGACCTTTGGAGGGTTGA [3d1867] | 0.202
TATCACTTGTCTAAGACCTTTGGATGGGTTA [3d1869] | 0.732
TATCACTTGTCTAAGACCTTTGGATGGGTTG [3d1870] | 0.755
TATCACTTGTCTAAGACCTTTGGATGGTTGA [3d1868] | 0.269
TATCACTTGTCTAAGACCTTTGGTGGGTTGA [3d1866] | 0.227
TATCACTTGTCTAAGACTTTGGATGGGTTGA [3d1846] | 0.786
TATCACTTGTCTAAGCACTTGGATGGGTTGA [3d1849] | 0.766
TATCACTTGTCTAAGCACTTTGATGGGTTGA [3d1850] | 0.724
TATCACTTGTCTAAGCACTTTGGAGGGTTGA [3d1852] | 0.128
TATCACTTGTCTAAGCACTTTGGATGGGTTA [3d1854] | 0.712
TATCACTTGTCTAAGCACTTTGGATGGGTTG [3d1855] | 0.75
TATCACTTGTCTAAGCACTTTGGATGGTTGA [3d1853] | 0.165
TATCACTTGTCTAAGCACTTTGGTGGGTTGA [3d1851] | 0.108
TATCACTTGTCTAAGCATTTGGATGGGTTGA [3d1848] | 0.818
TATCACTTGTCTAAGCCTTTGGATGGGTTGA [3d1847] | 0.776
TATCACTTGTCTAGAACTTTGGATGGGTTGA [3d1826] | 0.796
TATCACTTGTCTAGACACTTGGATGGGTTGA [3d1829] | 0.796
TATCACTTGTCTAGACACTTTGATGGGTTGA [3d1830] | 0.739
TATCACTTGTCTAGACACTTTGGAGGGTTGA [3d1832] | 0.218
TATCACTTGTCTAGACACTTTGGATGGGTTA [3d1834] | 0.738
TATCACTTGTCTAGACACTTTGGATGGGTTG [3d1835] | 0.76

Sequence | fraction ligated
TATCACTTGTCTAGACACTTTGGATGGGTTGA [2d195] | 0.799
TATCACTTGTCTAGACACTTTGGATGGTTGA [3d1833] | 0.361
TATCACTTGTCTAGACACTTTGGTGGGTTGA [3d1831] | 0.195
TATCACTTGTCTAGACATTTGGATGGGTTGA [3d1828] | 0.814
TATCACTTGTCTAGACCTTTGGATGGGTTGA [3d1827] | 0.737
TATCACTTGTCTAGCACTTTGGATGGGTTGA [3d1825] | 0.754
TATCACTTGTCTGACACTTTGGATGGGTTGA [3d1823] | 0.77
TATCACTTGTGAAACACTTTGGATGGGTTGA [3d1719] | 0.842
TATCACTTGTGAAGAACTTTGGATGGGTTGA [3d1721] | 0.851
TATCACTTGTGAAGACACTTGGATGGGTTGA [3d1724] | 0.801
TATCACTTGTGAAGACACTTTGATGGGTTGA [3d1725] | 0.818
TATCACTTGTGAAGACACTTTGGAGGGTTGA [3d1727] | 0.0789
TATCACTTGTGAAGACACTTTGGATGGGTTA [3d1729] | 0.823
TATCACTTGTGAAGACACTTTGGATGGGTTG [3d1730] | 0.854
TATCACTTGTGAAGACACTTTGGATGGGTTGA [2d180] | 0.853
TATCACTTGTGAAGACACTTTGGATGGTTGA [3d1728] | 0.243
TATCACTTGTGAAGACACTTTGGTGGGTTGA [3d1726] | 0.102
TATCACTTGTGAAGACATTTGGATGGGTTGA [3d1723] | 0.855
TATCACTTGTGAAGACCTTTGGATGGGTTGA [3d1722] | 0.823
